Measured values: US20230079150A1, “METHODS FOR PREVENTION OR TREATMENT OF VIRUS-INDUCED ORGAN INJURY OR FAILURE WITH IL-22 DIMER” (priority 2020, published 2023)

Tested on: H1N1 influenza (A/PR8 strain)
Format: in vivo, C57BL/6 mice

B1: F-652: recombinant IL-22 dimer consisting of two monomeric subunits each comprising a sequence shown in SEQ ID NO: 24 (protein)
chain 1: APISSHCRLDKSNFQQPYITNRTFMLAKEASLADNNTDVRLIGEKLFHGVSMSERCYLMKQVLNFTLEEVLFPQSDRFQPYMQEVVPFLARLSNRLSTCHIEGDDLHIQRNVQKLKDTVKKLGESGEIKAIGELDLLFMSLRNACIGSGGGSGGGGSGGGGSVECPPCPAPPVAGPSVFLFPPKPKDTLMISRTPEVTCVVVDVSHEDPEVQFNWYVDGVEVHNAKTKPREEQFNSTFRVVSVLTVVHQDWLNGKEYKCKVSNKGLPASIEKTISKTKGQPREPQVYTLPPSREEMTKNQVSLTCLVKGFYPSDIAVEWESNGQPENNYKTTPPMLDSDGSFFLYSKLTVDKSRWQQGNVFSCSVMHEALHNHYTQKSLSLSPGK
chain 2: APISSHCRLDKSNFQQPYITNRTFMLAKEASLADNNTDVRLIGEKLFHGVSMSERCYLMKQVLNFTLEEVLFPQSDRFQPYMQEVVPFLARLSNRLSTCHIEGDDLHIQRNVQKLKDTVKKLGESGEIKAIGELDLLFMSLRNACIGSGGGSGGGGSGGGGSVECPPCPAPPVAGPSVFLFPPKPKDTLMISRTPEVTCVVVDVSHEDPEVQFNWYVDGVEVHNAKTKPREEQFNSTFRVVSVLTVVHQDWLNGKEYKCKVSNKGLPASIEKTISKTKGQPREPQVYTLPPSREEMTKNQVSLTCLVKGFYPSDIAVEWESNGQPENNYKTTPPMLDSDGSFFLYSKLTVDKSRWQQGNVFSCSVMHEALHNHYTQKSLSLSPGK
modifications: homodimer
6-week treatment groups
  decreased small airway resistance at baseline (pattern differences): not seen
Aged mice, not young mice, prior to airway recruitment maneuver
  input impedance (Re Zrs): baseline resistance in small airways: significantly improves baseline resistance
